Source: paper PMC2820103 (Biochemistry, 2009)

Biological target: the molecule itself
Assay: SEC

B1: Benzylsuccinate synthase α subunit (BSS-α) with a C-terminal His6 tag (natural protein, Thauera aromatica T1, UniProt O68395 1-864, looked up)
chain: MNDIVSAKVLEYKGKKLNFTPEDPAEETIPADELHEHLQKPSTARTKRLKERCRWKHASAGEFIEKSVTAGIERMRYLTEAHKASEGKPEAIRRALGLANVLNKSTLVLQEDEFIVGYHAEDPNMFPLYPELSHMAVQDYLRSDYSPQPADEAAAINEYWKPHSLQSKCQPYFDPADLGRMYQVSSMEAPSFASGYNSIVPPYETVLEDGLLARIKLAEKHIAEAQADMSTFPWNGTKGLDNIAKIDNWKAMVIACKAVISWARRQGRLCKIVAENFETDPKRQAELLEIADICQRIPAEPCKGLKDAMQAKFFTFLICHAIERYASGYAQKEDTLLWPYYKASVVDKKFQPMSHMDAVELVEMERLKISEHGAGKSRAYREIFPGSNDLFILTVGGTNAKGEDACNDMTDAILEAAKRIRTAEPSIVFRYSKKNREKTLRWVFECIRDGLGYPSIKHDEIGTEQMKEYAKFSLNGNGATDEEAHNWVNVLCMSPGIHGRRKTQKTRSEGGGSIFPAKLLEISLNDGYDWSYADMQLGPKTGDLSSLKSFEDVWEAFRKQYQYAINLCISTKDVSRYFEQRFLQMPFVSAIDDGCMELGMDACALSEQPNGWHNPITTIVAANSLVAIKKLVFEEKKYTLEQLSQALKANWEGFEEMRVDFKRAPKWGNDDDYADGIITRFYEEIIGGEMRKITNYSGGPVMPTGQAVGLYMEVGSRTGPTPDGRFGGEAADDGGISPYMGTDKKGPTAVLRSVSKVQKNQKGNLLNQRLSVPIMRSKHGFEIWNSYMKTWHDLNIDHVQFNVVSTDEMRAAQREPEKHHDLIVRVSGYSARFVDIPTYGQNTIIARQEQDFSASDLEFLNVEI
  stoichiometry N: 2
